This assay concerns the target T1, endogenous PCNA (proliferating cell nuclear antigen) in HeLa cells (human (endogenous in HeLa cells), UniProt P12004 1-261).
T1 construct: whole, on cells; Intracellular (nuclear) endogenous protein in living or fixed HeLa cells, not on the surface
Description: GFP fusion expressed in HeLa cells, epifluorescence microscopy. On the procedure: First, it was investigated, whether transiently expressed PCNA3p16-GFP colocalizes with RFP-PCNA or HcRedLigase, another S phase marker. To do so, HeLa cells were seeded on coverslips and transiently double transfected with expression vectors coding for RFP-PCNA or HcRed-Ligase and vector coding for PCNA-Chromobody PCNA3p16-GFP. 24 h after transfection cells were fixed in 4% PFA for 15 minutes at room temperature, permeabilized with 0,2% Triton-X-100 in PBS and the DNA was counterstained with DAPI. Slides were mounted in VectaShield and further analyzed by epifluorescence microscopy with appropriate filtersets for DAPI (D360_{—}40X/HQ460_{—}40M), GFP (HQ480_{—}40X/HQ535_{—}50M) and red fluorescent proteins (HQ565_{—}30X/HQ620_{—}60M) and an 63X/1.3 NA Plan Apo oil objective. As expected, RFP-PCNA as well as HcRed-Ligase localized to DNA replication sites in the nucleus of the cells. In both cases a colocalization of RFP-PCNA and HcRed-Ligase with the Chromobody PCNA3p16-GFP was detected (FIG. 3 A). […]
To confirm that PCNA3p16-GFP recognizes endogenous PCNA located at active DNA replication sites, an antibody staining against PCNA and a BrdU pulse-chase experiment were performed. […] The primary anti-PCNA antibody (clone 16D10) (1:400) was detected by a secondary antibody coupled to the fluorescent dye Alexa568. […]

T1 sequence (P12004 whole entry): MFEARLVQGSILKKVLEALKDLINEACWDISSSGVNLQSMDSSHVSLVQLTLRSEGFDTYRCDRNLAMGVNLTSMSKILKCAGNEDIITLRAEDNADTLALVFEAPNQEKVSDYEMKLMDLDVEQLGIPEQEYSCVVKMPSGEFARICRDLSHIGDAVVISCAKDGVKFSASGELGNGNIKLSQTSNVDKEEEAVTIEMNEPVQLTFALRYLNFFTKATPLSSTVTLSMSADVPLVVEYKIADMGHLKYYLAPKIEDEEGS

B1: variant PCNA-Chromobody of SEQ ID NO 18 fused to GFP (VHH)
VHH: NVQLNESGGGLVQPGGSLRLSCAASGFTFSSYAMSWVRQAPGKGLEWVSEISPSGAVKAYSDSVKGRFTISRDNAKNRLYLQMNSLTPEDTGEYFCTKVQSPRTRIPAPSSQGTQVTVSS
notes: Expressed in HeLa cells as a GFP fusion; not shown: linker and GFP
With B1, the binding result is “binds”.

The record behind these values is US20120149028A1 (LUDWIG MAXIMILIANS UNIVERSITAT M NCHEN, published 2012).
